The results in this text go back to PMC5609567 (Biochemical Pharmacology, 2017).

Holding throughout (experiment): Radioligand binding
One test concerns the target T1, E348A RAMP2/CLR (Homo sapiens, UniProt O60895+Q16602, E348A).
T1 construct: expressed in transfected cells; host or cells: Cos7 (membranes)
Conditions: 125I-AM bound (span of displacement curve) normalized to WT, n = 3. Here is the method:
(§1) This was performed on membranes made from transfected Cos7 cells, essentially as described elsewhere. […] Incubations were terminated by centrifugation.
(§2) Radioligand binding data were analysed in Graphpad Prism as described for the cAMP assays.

The next test has as its target T2, F349A RAMP2/CLR (Homo sapiens, UniProt O60895+Q16602, F349A).
T2 construct: expressed in transfected cells; host or cells: Cos7 (membranes)
Conditions: 125I-AM bound (span of displacement curve) normalized to WT, n = 3. Here is the method: as §1, §2

In another test the target is T3, H374A RAMP1/CLR (Homo sapiens, UniProt O60894+Q16602, H374A).
T3 construct: expressed in transfected cells; host or cells: Cos7 (membranes)
Conditions: H374A CLR/RAMP1, Cos7 membranes. Here is the method:
as §1, §2

For the next test, the target named is T4, M230A RAMP2/CLR (Homo sapiens, UniProt O60895+Q16602, M230A).
T4 construct: expressed in transfected cells; host or cells: Cos7 (membranes)
Conditions: 125I-AM bound (span of displacement curve) normalized to WT, n = 3. Here is the method:
as §1, §2

In a further test the target is T5, N305A RAMP2/CLR (Homo sapiens, UniProt O60895+Q16602, N305A).
T5 construct: expressed in transfected cells; host or cells: Cos7 (membranes)
Conditions: 125I-AM bound (span of displacement curve) normalized to WT, n = 3. The protocol:
as §1, §2

In the next test the target is T6, WT RAMP1/CLR (Homo sapiens, UniProt O60894+Q16602).
T6 construct: expressed in transfected cells; host or cells: Cos7 (membranes)
Conditions: WT CLR/RAMP1, Cos7 membranes. Here is the method: as §1, §2

The next test has as its system V198A RAMP2/CLR. On the set-up: species or system human. Conditions: 125I-AM bound (span of displacement curve) normalized to WT, n = 3. Here is the method: as §1
Radioligand binding data were analysed in Graphpad Prism as described for the cAMP assays. […] Thus for each mutant, the total specific binding relative to WT was calculated from the span values and the 95% confidence limits were calculated. This relies on the Bmax value not changing; while this is consistent with our ELISA data, we cannot rule out a contribution to […] arising from a small change in receptor expression.

T1 sequence (Q16602 23-461 E348A): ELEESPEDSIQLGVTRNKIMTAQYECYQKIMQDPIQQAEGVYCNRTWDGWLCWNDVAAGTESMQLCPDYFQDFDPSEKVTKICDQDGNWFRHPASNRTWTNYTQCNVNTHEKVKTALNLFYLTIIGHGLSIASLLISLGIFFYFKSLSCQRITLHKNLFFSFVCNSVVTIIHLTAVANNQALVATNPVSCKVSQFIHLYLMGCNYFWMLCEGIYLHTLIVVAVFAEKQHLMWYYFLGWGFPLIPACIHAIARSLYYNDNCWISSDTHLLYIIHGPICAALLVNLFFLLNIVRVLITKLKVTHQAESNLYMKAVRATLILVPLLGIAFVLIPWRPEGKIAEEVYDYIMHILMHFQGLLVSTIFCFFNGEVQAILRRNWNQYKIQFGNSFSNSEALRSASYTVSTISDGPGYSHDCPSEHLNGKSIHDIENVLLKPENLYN
T1 sequence (O60895 43-175): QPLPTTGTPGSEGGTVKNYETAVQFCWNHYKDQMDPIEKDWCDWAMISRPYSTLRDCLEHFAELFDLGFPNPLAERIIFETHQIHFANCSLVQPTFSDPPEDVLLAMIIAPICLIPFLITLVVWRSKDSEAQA
T5 sequence (Q16602 23-461 N305A): as the sequence (Q16602 23-461 E348A) above, with N283A, A326E counted along it
T5 sequence (O60895 43-175): as the sequence (O60895 43-175) above
T6 sequence (Q16602 23-461): as the sequence (Q16602 23-461 E348A) above, with A326E counted along it
T6 sequence (O60894 27-148): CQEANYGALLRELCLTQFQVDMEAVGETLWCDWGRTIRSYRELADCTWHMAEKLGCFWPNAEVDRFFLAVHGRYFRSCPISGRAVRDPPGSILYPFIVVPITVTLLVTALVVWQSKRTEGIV
T2 sequence (Q16602 23-461 F349A): as the sequence (Q16602 23-461 E348A) above, with A326E, F327A counted along it
T2 sequence (O60895 43-175): as the sequence (O60895 43-175) above
T4 sequence (Q16602 23-461 M230A): as the sequence (Q16602 23-461 E348A) above, with M208A, A326E counted along it
T4 sequence (O60895 43-175): as the sequence (O60895 43-175) above
T3 sequence (Q16602 23-461 H374A): as the sequence (Q16602 23-461 E348A) above, with A326E, H352A counted along it
T3 sequence (O60894 27-148): as the sequence (O60894 27-148) above

For “[^125I]-human (13–52) iodotyrosyl^52adrenomedullin [125I-AM]”, the “% Ligand bound” value with E348A RAMP2/CLR amounted to 147.9 ± 2.9 %; with F349A RAMP2/CLR, 132.3 ± 4.3 %; in the test with M230A RAMP2/CLR it was 109.4 ± 3.7%; with N305A RAMP2/CLR it was 62.7 ± 4.7 %; in the test on V198A RAMP2/CLR, 116.2 ± 3.7 %. In addition, the entries for the “specific binding of 125I-AM” value in the test with H374A RAMP1/CLR and in the test with WT RAMP1/CLR were 5243 ± 112 dpm/mg and 78 ± 208 dpm/mg, respectively.
